Results: US20110118447A1

Target: binding partner of C5A (XPA23)
Assay: Biacore K-off

| Binder | fold difference in affinity vs original [fold] |
| --- | --- |
| C5A (XPA23) VL D92K (antibody, V domains shown) VH: EVQLLESGGGLVQPGGSLRLSCAASGFTFSKYFMFWVRQAPGKGLEWVSVISPSGGMTRYADSVKGRFTISRDNSKNTLYLQMNSLRAEDTAVYYCARVGYGGNSDYWGQGTLVTVSS VL: DIQMTQSPSSVSASVGDRLTIICRASQDINRWLAWYQQTPGNAPKLLIHSATSLQSGVPSRFSGSGSGTDFTLTINSLQPEDFATYYCQQAKSFPLTFGGGTKVEIK | 0.23 |
| C5A (XPA23) VL D92S (antibody, V domains shown) VH: EVQLLESGGGLVQPGGSLRLSCAASGFTFSKYFMFWVRQAPGKGLEWVSVISPSGGMTRYADSVKGRFTISRDNSKNTLYLQMNSLRAEDTAVYYCARVGYGGNSDYWGQGTLVTVSS VL: DIQMTQSPSSVSASVGDRLTIICRASQDINRWLAWYQQTPGNAPKLLIHSATSLQSGVPSRFSGSGSGTDFTLTINSLQPEDFATYYCQQASSFPLTFGGGTKVEIK | 6.59 |
| C5A (XPA23) VL L96T (antibody, V domains shown) VH: EVQLLESGGGLVQPGGSLRLSCAASGFTFSKYFMFWVRQAPGKGLEWVSVISPSGGMTRYADSVKGRFTISRDNSKNTLYLQMNSLRAEDTAVYYCARVGYGGNSDYWGQGTLVTVSS VL: DIQMTQSPSSVSASVGDRLTIICRASQDINRWLAWYQQTPGNAPKLLIHSATSLQSGVPSRFSGSGSGTDFTLTINSLQPEDFATYYCQQADSFPTTFGGGTKVEIK | 0.06 |
| C5A (XPA23) VL L96H (antibody, V domains shown) VH: EVQLLESGGGLVQPGGSLRLSCAASGFTFSKYFMFWVRQAPGKGLEWVSVISPSGGMTRYADSVKGRFTISRDNSKNTLYLQMNSLRAEDTAVYYCARVGYGGNSDYWGQGTLVTVSS VL: DIQMTQSPSSVSASVGDRLTIICRASQDINRWLAWYQQTPGNAPKLLIHSATSLQSGVPSRFSGSGSGTDFTLTINSLQPEDFATYYCQQADSFPHTFGGGTKVEIK | 0.07 |
| C5A (XPA23) VL L96N (antibody, V domains shown) VH: EVQLLESGGGLVQPGGSLRLSCAASGFTFSKYFMFWVRQAPGKGLEWVSVISPSGGMTRYADSVKGRFTISRDNSKNTLYLQMNSLRAEDTAVYYCARVGYGGNSDYWGQGTLVTVSS VL: DIQMTQSPSSVSASVGDRLTIICRASQDINRWLAWYQQTPGNAPKLLIHSATSLQSGVPSRFSGSGSGTDFTLTINSLQPEDFATYYCQQADSFPNTFGGGTKVEIK | 0.06 |
| C5A (XPA23) VL D92Q (antibody, V domains shown) VH: EVQLLESGGGLVQPGGSLRLSCAASGFTFSKYFMFWVRQAPGKGLEWVSVISPSGGMTRYADSVKGRFTISRDNSKNTLYLQMNSLRAEDTAVYYCARVGYGGNSDYWGQGTLVTVSS VL: DIQMTQSPSSVSASVGDRLTIICRASQDINRWLAWYQQTPGNAPKLLIHSATSLQSGVPSRFSGSGSGTDFTLTINSLQPEDFATYYCQQAQSFPLTFGGGTKVEIK | 0.56 |
| C5A (XPA23) VL L96S (antibody, V domains shown) VH: EVQLLESGGGLVQPGGSLRLSCAASGFTFSKYFMFWVRQAPGKGLEWVSVISPSGGMTRYADSVKGRFTISRDNSKNTLYLQMNSLRAEDTAVYYCARVGYGGNSDYWGQGTLVTVSS VL: DIQMTQSPSSVSASVGDRLTIICRASQDINRWLAWYQQTPGNAPKLLIHSATSLQSGVPSRFSGSGSGTDFTLTINSLQPEDFATYYCQQADSFPSTFGGGTKVEIK | 0.23 |
| C5A (XPA23) VL D92N (antibody, V domains shown) VH: EVQLLESGGGLVQPGGSLRLSCAASGFTFSKYFMFWVRQAPGKGLEWVSVISPSGGMTRYADSVKGRFTISRDNSKNTLYLQMNSLRAEDTAVYYCARVGYGGNSDYWGQGTLVTVSS VL: DIQMTQSPSSVSASVGDRLTIICRASQDINRWLAWYQQTPGNAPKLLIHSATSLQSGVPSRFSGSGSGTDFTLTINSLQPEDFATYYCQQANSFPLTFGGGTKVEIK | 0.67 |
| C5A (XPA23) VL D92T (antibody, V domains shown) VH: EVQLLESGGGLVQPGGSLRLSCAASGFTFSKYFMFWVRQAPGKGLEWVSVISPSGGMTRYADSVKGRFTISRDNSKNTLYLQMNSLRAEDTAVYYCARVGYGGNSDYWGQGTLVTVSS VL: DIQMTQSPSSVSASVGDRLTIICRASQDINRWLAWYQQTPGNAPKLLIHSATSLQSGVPSRFSGSGSGTDFTLTINSLQPEDFATYYCQQATSFPLTFGGGTKVEIK | 0.34 |
| C5A (XPA23) VL D92H (antibody, V domains shown) VH: EVQLLESGGGLVQPGGSLRLSCAASGFTFSKYFMFWVRQAPGKGLEWVSVISPSGGMTRYADSVKGRFTISRDNSKNTLYLQMNSLRAEDTAVYYCARVGYGGNSDYWGQGTLVTVSS VL: DIQMTQSPSSVSASVGDRLTIICRASQDINRWLAWYQQTPGNAPKLLIHSATSLQSGVPSRFSGSGSGTDFTLTINSLQPEDFATYYCQQAHSFPLTFGGGTKVEIK | 0.63 |

Results, then the binder that gave them:

| fold difference in affinity vs original [fold] | Binder |
| --- | --- |
| 3.76 | C5A (XPA23) VL S93N (antibody, V domains shown) VH: EVQLLESGGGLVQPGGSLRLSCAASGFTFSKYFMFWVRQAPGKGLEWVSVISPSGGMTRYADSVKGRFTISRDNSKNTLYLQMNSLRAEDTAVYYCARVGYGGNSDYWGQGTLVTVSS VL: DIQMTQSPSSVSASVGDRLTIICRASQDINRWLAWYQQTPGNAPKLLIHSATSLQSGVPSRFSGSGSGTDFTLTINSLQPEDFATYYCQQADNFPLTFGGGTKVEIK |
| 1.54 | C5A (XPA23) VL S93Q (antibody, V domains shown) VH: EVQLLESGGGLVQPGGSLRLSCAASGFTFSKYFMFWVRQAPGKGLEWVSVISPSGGMTRYADSVKGRFTISRDNSKNTLYLQMNSLRAEDTAVYYCARVGYGGNSDYWGQGTLVTVSS VL: DIQMTQSPSSVSASVGDRLTIICRASQDINRWLAWYQQTPGNAPKLLIHSATSLQSGVPSRFSGSGSGTDFTLTINSLQPEDFATYYCQQADQFPLTFGGGTKVEIK |
| 1.45 | C5A (XPA23) VL S93Y (antibody, V domains shown) VH: EVQLLESGGGLVQPGGSLRLSCAASGFTFSKYFMFWVRQAPGKGLEWVSVISPSGGMTRYADSVKGRFTISRDNSKNTLYLQMNSLRAEDTAVYYCARVGYGGNSDYWGQGTLVTVSS VL: DIQMTQSPSSVSASVGDRLTIICRASQDINRWLAWYQQTPGNAPKLLIHSATSLQSGVPSRFSGSGSGTDFTLTINSLQPEDFATYYCQQADYFPLTFGGGTKVEIK |
| 1.47 | C5A (XPA23) VL S93T (antibody, V domains shown) VH: EVQLLESGGGLVQPGGSLRLSCAASGFTFSKYFMFWVRQAPGKGLEWVSVISPSGGMTRYADSVKGRFTISRDNSKNTLYLQMNSLRAEDTAVYYCARVGYGGNSDYWGQGTLVTVSS VL: DIQMTQSPSSVSASVGDRLTIICRASQDINRWLAWYQQTPGNAPKLLIHSATSLQSGVPSRFSGSGSGTDFTLTINSLQPEDFATYYCQQADTFPLTFGGGTKVEIK |
| 1.32 | C5A (XPA23) VL P95D (antibody, V domains shown) VH: EVQLLESGGGLVQPGGSLRLSCAASGFTFSKYFMFWVRQAPGKGLEWVSVISPSGGMTRYADSVKGRFTISRDNSKNTLYLQMNSLRAEDTAVYYCARVGYGGNSDYWGQGTLVTVSS VL: DIQMTQSPSSVSASVGDRLTIICRASQDINRWLAWYQQTPGNAPKLLIHSATSLQSGVPSRFSGSGSGTDFTLTINSLQPEDFATYYCQQADSFDLTFGGGTKVEIK |
| 0.91 | C5A (XPA23) VL S93R (antibody, V domains shown) VH: EVQLLESGGGLVQPGGSLRLSCAASGFTFSKYFMFWVRQAPGKGLEWVSVISPSGGMTRYADSVKGRFTISRDNSKNTLYLQMNSLRAEDTAVYYCARVGYGGNSDYWGQGTLVTVSS VL: DIQMTQSPSSVSASVGDRLTIICRASQDINRWLAWYQQTPGNAPKLLIHSATSLQSGVPSRFSGSGSGTDFTLTINSLQPEDFATYYCQQADRFPLTFGGGTKVEIK |
| 4.05 | C5A (XPA23) VL P95S (antibody, V domains shown) VH: EVQLLESGGGLVQPGGSLRLSCAASGFTFSKYFMFWVRQAPGKGLEWVSVISPSGGMTRYADSVKGRFTISRDNSKNTLYLQMNSLRAEDTAVYYCARVGYGGNSDYWGQGTLVTVSS VL: DIQMTQSPSSVSASVGDRLTIICRASQDINRWLAWYQQTPGNAPKLLIHSATSLQSGVPSRFSGSGSGTDFTLTINSLQPEDFATYYCQQADSFSLTFGGGTKVEIK |
| 3.71 | C5A (XPA23) VL S93E (antibody, V domains shown) VH: EVQLLESGGGLVQPGGSLRLSCAASGFTFSKYFMFWVRQAPGKGLEWVSVISPSGGMTRYADSVKGRFTISRDNSKNTLYLQMNSLRAEDTAVYYCARVGYGGNSDYWGQGTLVTVSS VL: DIQMTQSPSSVSASVGDRLTIICRASQDINRWLAWYQQTPGNAPKLLIHSATSLQSGVPSRFSGSGSGTDFTLTINSLQPEDFATYYCQQADEFPLTFGGGTKVEIK |
| 1.08 | C5A (XPA23) VL S93H (antibody, V domains shown) VH: EVQLLESGGGLVQPGGSLRLSCAASGFTFSKYFMFWVRQAPGKGLEWVSVISPSGGMTRYADSVKGRFTISRDNSKNTLYLQMNSLRAEDTAVYYCARVGYGGNSDYWGQGTLVTVSS VL: DIQMTQSPSSVSASVGDRLTIICRASQDINRWLAWYQQTPGNAPKLLIHSATSLQSGVPSRFSGSGSGTDFTLTINSLQPEDFATYYCQQADHFPLTFGGGTKVEIK |
| 0.86 | C5A (XPA23) VL S93K (antibody, V domains shown) VH: EVQLLESGGGLVQPGGSLRLSCAASGFTFSKYFMFWVRQAPGKGLEWVSVISPSGGMTRYADSVKGRFTISRDNSKNTLYLQMNSLRAEDTAVYYCARVGYGGNSDYWGQGTLVTVSS VL: DIQMTQSPSSVSASVGDRLTIICRASQDINRWLAWYQQTPGNAPKLLIHSATSLQSGVPSRFSGSGSGTDFTLTINSLQPEDFATYYCQQADKFPLTFGGGTKVEIK |
| 4.59 | C5A (XPA23) VL S93D (antibody, V domains shown) VH: EVQLLESGGGLVQPGGSLRLSCAASGFTFSKYFMFWVRQAPGKGLEWVSVISPSGGMTRYADSVKGRFTISRDNSKNTLYLQMNSLRAEDTAVYYCARVGYGGNSDYWGQGTLVTVSS VL: DIQMTQSPSSVSASVGDRLTIICRASQDINRWLAWYQQTPGNAPKLLIHSATSLQSGVPSRFSGSGSGTDFTLTINSLQPEDFATYYCQQADDFPLTFGGGTKVEIK |
| 0.88 | C5A (XPA23) VL P95E (antibody, V domains shown) VH: EVQLLESGGGLVQPGGSLRLSCAASGFTFSKYFMFWVRQAPGKGLEWVSVISPSGGMTRYADSVKGRFTISRDNSKNTLYLQMNSLRAEDTAVYYCARVGYGGNSDYWGQGTLVTVSS VL: DIQMTQSPSSVSASVGDRLTIICRASQDINRWLAWYQQTPGNAPKLLIHSATSLQSGVPSRFSGSGSGTDFTLTINSLQPEDFATYYCQQADSFELTFGGGTKVEIK |
